To fix the notation:
B1: RTP4 (parent)
chain: AFGWFRCSSCQRSWASAQVQILCH
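Note: lentivirally expressed fusions sorted by FACS into six bins by GFP to DsRed ratio, PSI derived from sequencing read proportions per bin multiplied by bin number.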

In the series the parent is B1. The series is described as follows: protein stability index of a GFP-peptide fusion (GPS, HEK-293T) (PSI 1-6); higher = more stable. The conditions noted are these: c terminus: a fixed tail appended.
ADGWFRCSSCQRSWASAQVQILCH [F2D]: the protein stability index was found to be 2.56. As for APGWFRCSSCQRSWASAQVQILCH [F2P], the protein stability index is 2.67.

On to ATGWFRCSSCQRSWASAQVQILCH [F2T], for which the protein stability index is 2.73. Consider AFGWFRCDSCQRSWASAQVQILCH [S8D], for which the protein stability index worked out at 3.96. Under AFGWFRCESCQRSWASAQVQILCH [S8E] stands 1.83.

As for AFGWFRCVSCQRSWASAQVQILCH [S8V], the protein stability index is 3.2. With AFGWFRCHSCQRSWASAQVQILCH [S8H] the figure was 2.39; with AFGWFRCPSCQRSWASAQVQILCH [S8P], 2.27; with AFGWFRYSSCQRSWASAQVQILCH [C7Y], 2.67. For the variant AFGWFRSSSCQRSWASAQVQILCH [C7S], the protein stability index turned out to be 3.67.

Regarding AFGWFRISSCQRSWASAQVQILCH [C7I], the protein stability index amounted to 2.4. AFGWFRVSSCQRSWASAQVQILCH [C7V]: the protein stability index came to 3.3. Take AFGWFRESSCQRSWASAQVQILCH [C7E]: the protein stability index is 2.89. Under AFGWFRDSSCQRSWASAQVQILCH [C7D] stands 3.61; under AFGWFRKSSCQRSWASAQVQILCH [C7K], 3.9; under AFGWFRHSSCQRSWASAQVQILCH [C7H], 2.97.

In the case of AFGWFRLSSCQRSWASAQVQILCH [C7L], the protein stability index was 4.23. Take AFGWFRCSSCQRSWESAQVQILCH [A15E]: the protein stability index came out at 1.6. Turning to AFGWFRCSSCQRSWFSAQVQILCH [A15F], the protein stability index is 2. With AFGWFRCSSCQRSWCSAQVQILCH [A15C] the figure was 2.98.

For AFGWFRCSSCQRSWDSAQVQILCH [A15D], the protein stability index amounted to 1.24. Under AFGWFACSSCQRSWASAQVQILCH [R6A] stands 2.65; under AFGWFYCSSCQRSWASAQVQILCH [R6Y], 2.65; under AFGWFQCSSCQRSWASAQVQILCH [R6Q], 2.12. Under AFGWFHCSSCQRSWASAQVQILCH [R6H] stands 2.77; under AFGWFFCSSCQRSWASAQVQILCH [R6F], 1.93; under AFGWFCCSSCQRSWASAQVQILCH [R6C], 2.07. With AFGWFNCSSCQRSWASAQVQILCH [R6N] the figure was 1.77; with AFGWFLCSSCQRSWASAQVQILCH [R6L], 3.45. For AFGWFICSSCQRSWASAQVQILCH [R6I], the protein stability index is 3.19.

For the variant AFGWCRCSSCQRSWASAQVQILCH [F5C], the protein stability index was 1.77.

AFGWIRCSSCQRSWASAQVQILCH [F5I]: the protein stability index is 2.35. On to AFGWKRCSSCQRSWASAQVQILCH [F5K], for which the protein stability index turned out to be 3.49.

In the case of AFGWQRCSSCQRSWASAQVQILCH [F5Q], the protein stability index was 2.99.

Regarding AFGWYRCSSCQRSWASAQVQILCH [F5Y], the protein stability index was determined as 4. With AFGWGRCSSCQRSWASAQVQILCH [F5G] the figure was 2.57. With AFDWFRCSSCQRSWASAQVQILCH [G3D] the figure was 1.45; with AFPWFRCSSCQRSWASAQVQILCH [G3P], 3.37. For the variant AFAWFRCSSCQRSWASAQVQILCH [G3A], the protein stability index amounted to 2.75. Turning to AFNWFRCSSCQRSWASAQVQILCH [G3N], the protein stability index was determined as 2.75. With AFHWFRCSSCQRSWASAQVQILCH [G3H] the figure was 1.14. For AFGWFRCSSCQRRWASAQVQILCH [S13R], the protein stability index was 2.27.

With AFGWFRCSSCQRHWASAQVQILCH [S13H], the protein stability index was 2.36. With AFGWFRCSSCQRFWASAQVQILCH [S13F] the figure was 1.54; with AFGWFRCSSCQRPWASAQVQILCH [S13P], 2.41. Take AFGWFRCSSCQRDWASAQVQILCH [S13D]: the protein stability index is 2.27. Under AFGWFRCSSCQRIWASAQVQILCH [S13I] stands 1.36; under AFGWFRCSSCQRVWASAQVQILCH [S13V], 3.12; under AFGWFRCSSCQRWWASAQVQILCH [S13W], 3.02. With AFGWFRCSSCQRNWASAQVQILCH [S13N] the figure was 3.74; with AFGWFRCSSCQRMWASAQVQILCH [S13M], 2.09. As to AFGWFRCSSCQRQWASAQVQILCH [S13Q], the protein stability index is 2.43. AFGWFRCSSCQRLWASAQVQILCH [S13L]: the protein stability index was found to be 1.69. As for AFGWFRCSSCQRYWASAQVQILCH [S13Y], the protein stability index came to 3.16.

On to AFGWFRCSSCRRSWASAQVQILCH [Q11R], for which the protein stability index amounted to 2.89. As to AFGWFRCSSCDRSWASAQVQILCH [Q11D], the protein stability index is 2.83. With AFGWFRCSSCWRSWASAQVQILCH [Q11W] the figure was 1.81.

As to AFGWFRCSSCNRSWASAQVQILCH [Q11N], the protein stability index was 2.49. With AFGWFRCSSCERSWASAQVQILCH [Q11E] the figure was 1.88; with AFGWFRCSSCHRSWASAQVQILCH [Q11H], 2.43.

With AFGWFRCSSCYRSWASAQVQILCH [Q11Y], the protein stability index amounted to 4.15. With AFGWFRCSSCKRSWASAQVQILCH [Q11K] the figure was 3.01. Under AFGWFRCSSCTRSWASAQVQILCH [Q11T] stands 3.55; under AFGWFRCSSCGRSWASAQVQILCH [Q11G], 2.23.

Turning to AFGWFRCSSCPRSWASAQVQILCH [Q11P], the protein stability index was 2.27. With AFGWFRCSSCIRSWASAQVQILCH [Q11I] the figure was 3.81; with AFGWFRCSSCVRSWASAQVQILCH [Q11V], 4.38; with AFGWFRCSSCQRSNASAQVQILCH [W14N], 2.96.

In the case of AFGWFRCSSCQRSCASAQVQILCH [W14C], the protein stability index is 3.08. Consider AFGWFRCSSCQRSSASAQVQILCH [W14S], for which the protein stability index worked out at 2.45. With AFGWFRCSSCQRSKASAQVQILCH [W14K] the figure was 2.54. Under AFGWFRCSSCQRSTASAQVQILCH [W14T] stands 3.22; under AFGWFRCSSCQRSIASAQVQILCH [W14I], 2.21; under AFGWFRCSSCQRSLASAQVQILCH [W14L], 1.57. Regarding AFGWFRCSSCQRSPASAQVQILCH [W14P], the protein stability index is 3.31. For the variant AFGWFRCSSCQRSFASAQVQILCH [W14F], the protein stability index is 3.1.

On to AFGWFRCSSCQRSVASAQVQILCH [W14V], for which the protein stability index is 1.36.

In the case of AFGWFRCSSCQRSHASAQVQILCH [W14H], the protein stability index is 1.95.

Regarding AFGWFRCSSCQRSYASAQVQILCH [W14Y], the protein stability index is 2.11. As to AFGWFRCSSCQRSMASAQVQILCH [W14M], the protein stability index is 1.1.

Regarding AFGWFRCSSCQRSRASAQVQILCH [W14R], the protein stability index is 1.48. Turning to AFGWFRCSSCQRSAASAQVQILCH [W14A], the protein stability index came out at 1.8. On to AFGWFRCSFCQRSWASAQVQILCH [S9F], for which the protein stability index came to 2.75. As to AFGWFRCSVCQRSWASAQVQILCH [S9V], the protein stability index was determined as 1.64. With AFGWFRCSCCQRSWASAQVQILCH [S9C] the figure was 2.09; with AFGWFRCSQCQRSWASAQVQILCH [S9Q], 2.35; with AFGWFRCSMCQRSWASAQVQILCH [S9M], 3.56.

AFGWFRCSKCQRSWASAQVQILCH [S9K]: the protein stability index worked out at 1.72. Consider AFGWFRCSGCQRSWASAQVQILCH [S9G], for which the protein stability index is 1.9.

With AFGWFRCSTCQRSWASAQVQILCH [S9T], the protein stability index turned out to be 4.83.

Turning to AFGWFRCSPCQRSWASAQVQILCH [S9P], the protein stability index is 2.5. On to AFGWFRCSNCQRSWASAQVQILCH [S9N], for which the protein stability index was 2.39.

As for AFGWFRCSICQRSWASAQVQILCH [S9I], the protein stability index worked out at 2.15.

Turning to AFGWFRCSYCQRSWASAQVQILCH [S9Y], the protein stability index came out at 3.01.
